One molecule from paper PMC7954662 (Science (New York, N.Y.), 2020) can be followed below.

This assay addresses Human GCGR (Q27-F477) with N-terminal FLAG and C-terminal octahistidine tag (human, UniProt P47871 27-477). In words: cryo-EM structure.

Human GCGR (Q27-F477) with N-terminal FLAG and C-terminal octahistidine tag, sequence (P47871 27-477): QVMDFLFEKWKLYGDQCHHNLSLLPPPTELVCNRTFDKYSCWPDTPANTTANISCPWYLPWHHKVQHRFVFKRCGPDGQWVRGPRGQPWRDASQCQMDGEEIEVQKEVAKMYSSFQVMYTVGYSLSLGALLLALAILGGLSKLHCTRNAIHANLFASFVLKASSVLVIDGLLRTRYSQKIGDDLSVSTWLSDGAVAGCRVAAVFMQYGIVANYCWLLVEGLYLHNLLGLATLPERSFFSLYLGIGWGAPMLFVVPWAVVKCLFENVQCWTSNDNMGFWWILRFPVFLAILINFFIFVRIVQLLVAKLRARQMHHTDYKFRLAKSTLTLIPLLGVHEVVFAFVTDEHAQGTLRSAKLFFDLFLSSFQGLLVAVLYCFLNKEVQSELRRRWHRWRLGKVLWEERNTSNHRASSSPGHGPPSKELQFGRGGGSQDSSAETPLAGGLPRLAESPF

B1: Gαs (human, short splice variant), subunit of the Gs heterotrimer (natural protein)
chain: MGCLGNSKTEDQRNEEKAQREANKKIEKQLQKDKQVYRATHRLLLLGAGESGKSTIVKQMRILHVNGFNGDSEKATKVQDIKNNLKEAIETIVAAMSNLVPPVELANPENQFRVDYILSVMNVPDFDFPPEFYEHAKALWEDEGVRACYERSNEYQLIDCAQYFLDKIDVIKQADYVPSDQDLLRCRVLTSGIFETKFQVDKVNFHMFDVGGQRDERRKWIQCFNDVTAIIFVVASSSYNMVIREDNQTNRLQEALNLFKSIWNNRWLRTISVILFLNKQDLLAEKVLAGKSKIEDYFPEFARYTTPEDATPEPGEDPRVTRAKYFIRDEFLRISTASGDGRHYCYPHFTCAVDTENIRRVFNDCRDIIQRMHLRQYELL
B1: the binding result is on record as “binds”.
